The text below walks through data of patent US20140011213A1.

The test has as its target BAP-CD59a reporter, biotinylated in vitro by BirA (on CHO-S cells) (mouse). Put plainly: FACS; CHO-S transfected with BAP-CD59a, incubated with BirA and stained with F-SA (non-transfected stained control MFI-69). On the technique in general: Flow cytometry measures light scatter and fluorescence of single cells or particles in a stream.

BAP-CD59a reporter, biotinylated in vitro by BirA (on CHO-S cells) (mouse), sequence (chain, as listed by the source): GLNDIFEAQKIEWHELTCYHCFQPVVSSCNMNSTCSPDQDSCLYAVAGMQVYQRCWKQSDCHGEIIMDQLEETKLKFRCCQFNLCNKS

The substance “R-Phycoerythrin-conjugated Streptavidin (from UniProt P22629 37-163)” yielded an MFI of 24400.
